# Square brackets hold non-standard residues; d marks the D form. Tpi = O=C(O)[C@@H]1Cc2c([nH]c3ccccc23)CN1; Oic = O=C(O)[C@@H]1C[C@@H]2CCCC[C@@H]2N1; hArg = N=C(N)NCCCC[C@H](N)C(=O)O; Cit = NC(=O)NCCC[C@H](N)C(=O)O; Aib = CC(C)(N)C(=O)O
# Target: T1, CGRP1 receptor (CRLR/RAMP1 complex) of human neuroblastoma SK-N-MC cells (human, UniProt Q16602 23-461; O60894 27-148)
# Test: cell-based or functional assay
# T1 sequence (Q16602 23-461, chain 1 of 2): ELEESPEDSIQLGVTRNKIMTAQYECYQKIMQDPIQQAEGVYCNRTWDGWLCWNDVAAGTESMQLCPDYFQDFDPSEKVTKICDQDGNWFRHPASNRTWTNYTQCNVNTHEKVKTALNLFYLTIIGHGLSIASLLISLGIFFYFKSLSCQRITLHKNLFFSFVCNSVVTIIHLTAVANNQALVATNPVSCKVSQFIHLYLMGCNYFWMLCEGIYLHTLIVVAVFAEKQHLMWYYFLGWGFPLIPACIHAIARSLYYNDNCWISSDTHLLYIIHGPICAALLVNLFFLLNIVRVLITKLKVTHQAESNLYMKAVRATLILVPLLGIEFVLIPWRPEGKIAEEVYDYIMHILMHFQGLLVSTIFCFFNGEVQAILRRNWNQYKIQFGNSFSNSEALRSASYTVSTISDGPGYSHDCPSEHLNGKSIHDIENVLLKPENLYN
# T1 sequence (O60894 27-148, chain 2 of 2): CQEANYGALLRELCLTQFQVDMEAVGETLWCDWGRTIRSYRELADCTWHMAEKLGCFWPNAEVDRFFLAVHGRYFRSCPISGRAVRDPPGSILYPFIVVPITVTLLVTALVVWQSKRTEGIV
row,IC50,Binder
1,0.44 nM,WVTHXLAGLLSRSGGVVRKNFVPTDVGPFAF (Ac-WVTH(hR)LAGLLSRSGGVVRKNFVPTDVGPFAF-NH2) [SEQ ID NO 21]
2,0.33 nM,"WVTHRLAGLLSXSGGVVRKNFVPTDVGPFAF (Ac-WVTHRLAGLLS(hR)SGGVVRKNFVPTDVGPFAF-NH2; 20 k Da PEG, Amine linkage) [SEQ ID NO 24]"
3,0.36 nM,"WVTHXLAGLLSRSGGVVRKNFVPTDVGPFAF (Ac-WVTH(hR)LAGLLSRSGGVVRKNFVPTDVGPFAF-NH2; 20 k Da PEG, Amine linkage) [SEQ ID NO 22]"
4,0.57 nM,WVTHRLAGLLSXSGGVVRKNFVPTDVGPFAF (Ac-WVTHRLAGLLS(hR)SGGVVRKNFVPTDVGPFAF-NH2) [SEQ ID NO 23]

# Target: T1, CGRP1 receptor (CRLR/RAMP1 complex) of …
# Test: cell-based or functional assay
# Remark: another data set of the same source
row,Binder,IC50
1,Ac-[Cit]LAGLLS[Cit]SGGVV[hArg]KNFVPTDVG[Oic]FAF-NH2 [SEQ ID NO 661],8.74 nM
2,WVTHXLAGLLSXSGGVVXKNFVXTDVGPFAX (Ac-WVTH[Cit]LAGLLS[Cit]SGGVV[hArg]KNFV[Oic]TDVGPFA[2-Nal]-NH2) [SEQ ID NO 135],3.22 nM
3,WVTHXLAGLLSXSGGVVXKNFVPTDVGPXAF (Ac-WVTH[Cit]LAGLLS[Cit]SGGVV[hArg]KNFVPTDVGP[Tic]AF-NH2) [SEQ ID NO 131],89.9 nM
4,Ac-LAGLLS[Cit]SGGVV[hArg]KNFVPTDVG[Oic]FAF-NH2 (SMILES CC(=O)N[C@@H](CC(C)C)C(=O)N[C@@H](C)C(=O)NCC(=O)N[C@@H](CC(C)C)C(=O)N[C@@H](CC(C)C)C(=O)N[C@@H](CO)C(=O)N[C@@H](CCCNC(N)=O)C(=O)N[C@@H](CO)C(=O)NCC(=O)NCC(=O)N[C@H](C(=O)N[C@H](C(=O)N[C@@H](CCCCNC(=N)N)C(=O)N[C@@H](CCCCN)C(=O)N[C@@H](CC(N)=O)C(=O)N[C@@H](Cc1ccccc1)C(=O)N[C@H](C(=O)N1CCC[C@H]1C(=O)N[C@H](C(=O)N[C@@H](CC(=O)O)C(=O)N[C@H](C(=O)NCC(=O)N1[C@H](C(=O)N[C@@H](Cc2ccccc2)C(=O)N[C@@H](C)C(=O)N[C@@H](Cc2ccccc2)C(N)=O)C[C@@H]2CCCC[C@@H]21)C(C)C)[C@@H](C)O)C(C)C)C(C)C)C(C)C) [SEQ ID NO 662],16.5 nM
5,WVTHXLAGLLSXSGGVVXKNFVXTDVGPXAF (Ac-WVTH[Cit]LAGLLS[Cit]SGGVV[hArg]KNFV[Oic]TDVGP[Bip]AF-NH2) [SEQ ID NO 134],3.85 nM
6,WVTHXLAGLLSXSGGVVXKNXVXTDVGPXAF (Ac-WVTH[Cit]LAGLLS[Cit]SGGVV[hArg]KN[pI-Phe]V[Oic]TDVGP[pI-Phe]AF-NH2) [SEQ ID NO 136],2.34 nM
7,WVTHXLAGLLSXSGGVVXKNFVXTDVGPXAX (Ac-WVTH[Cit]LAGLLS[Cit]SGGVV[hArg]KNFV[Oic]TDVGP[1-Nal]A[2-Nal]-NH2) [SEQ ID NO 133],2.73 nM
8,WVTHXLAGLLSXSGGVVXKNFVXTDVGXFAX (Ac-WVTH[Cit]LAGLLS[Cit]SGGVV[hArg]KNFV[Oic]TDVG[Oic]FA[2-Nal]-NH2) [SEQ ID NO 132],2.57 nM
9,Ac-VTH[Cit]LAGLLS[Cit]SGGVV[hArg]KNFVPTDVG[Oic]FAF-NH2 (SMILES CC(=O)N[C@H](C(=O)N[C@H](C(=O)N[C@@H](Cc1c[nH]cn1)C(=O)N[C@@H](CCCNC(N)=O)C(=O)N[C@@H](CC(C)C)C(=O)N[C@@H](C)C(=O)NCC(=O)N[C@@H](CC(C)C)C(=O)N[C@@H](CC(C)C)C(=O)N[C@@H](CO)C(=O)N[C@@H](CCCNC(N)=O)C(=O)N[C@@H](CO)C(=O)NCC(=O)NCC(=O)N[C@H](C(=O)N[C@H](C(=O)N[C@@H](CCCCNC(=N)N)C(=O)N[C@@H](CCCCN)C(=O)N[C@@H](CC(N)=O)C(=O)N[C@@H](Cc1ccccc1)C(=O)N[C@H](C(=O)N1CCC[C@H]1C(=O)N[C@H](C(=O)N[C@@H](CC(=O)O)C(=O)N[C@H](C(=O)NCC(=O)N1[C@H](C(=O)N[C@@H](Cc2ccccc2)C(=O)N[C@@H](C)C(=O)N[C@@H](Cc2ccccc2)C(N)=O)C[C@@H]2CCCC[C@@H]21)C(C)C)[C@@H](C)O)C(C)C)C(C)C)C(C)C)[C@@H](C)O)C(C)C) [SEQ ID NO 660],3 nM
10,Ac-[Cit]LAGLLS[Cit]SGGVV[hArg]KNFVPTDVGPFAF-NH2 (SMILES CC(=O)N[C@@H](CCCNC(N)=O)C(=O)N[C@@H](CC(C)C)C(=O)N[C@@H](C)C(=O)NCC(=O)N[C@@H](CC(C)C)C(=O)N[C@@H](CC(C)C)C(=O)N[C@@H](CO)C(=O)N[C@@H](CCCNC(N)=O)C(=O)N[C@@H](CO)C(=O)NCC(=O)NCC(=O)N[C@H](C(=O)N[C@H](C(=O)N[C@@H](CCCCNC(=N)N)C(=O)N[C@@H](CCCCN)C(=O)N[C@@H](CC(N)=O)C(=O)N[C@@H](Cc1ccccc1)C(=O)N[C@H](C(=O)N1CCC[C@H]1C(=O)N[C@H](C(=O)N[C@@H](CC(=O)O)C(=O)N[C@H](C(=O)NCC(=O)N1CCC[C@H]1C(=O)N[C@@H](Cc1ccccc1)C(=O)N[C@@H](C)C(=O)N[C@@H](Cc1ccccc1)C(N)=O)C(C)C)[C@@H](C)O)C(C)C)C(C)C)C(C)C) [SEQ ID NO 657],13 nM
11,Ac-WVTH[Cit]LAGLLS[Cit]SGGVV[hArg]KNFVPTDVG[Oic]FA-NH2 (SMILES CC(=O)N[C@@H](Cc1c[nH]c2ccccc12)C(=O)N[C@H](C(=O)N[C@H](C(=O)N[C@@H](Cc1c[nH]cn1)C(=O)N[C@@H](CCCNC(N)=O)C(=O)N[C@@H](CC(C)C)C(=O)N[C@@H](C)C(=O)NCC(=O)N[C@@H](CC(C)C)C(=O)N[C@@H](CC(C)C)C(=O)N[C@@H](CO)C(=O)N[C@@H](CCCNC(N)=O)C(=O)N[C@@H](CO)C(=O)NCC(=O)NCC(=O)N[C@H](C(=O)N[C@H](C(=O)N[C@@H](CCCCNC(=N)N)C(=O)N[C@@H](CCCCN)C(=O)N[C@@H](CC(N)=O)C(=O)N[C@@H](Cc1ccccc1)C(=O)N[C@H](C(=O)N1CCC[C@H]1C(=O)N[C@H](C(=O)N[C@@H](CC(=O)O)C(=O)N[C@H](C(=O)NCC(=O)N1[C@H](C(=O)N[C@@H](Cc2ccccc2)C(=O)N[C@@H](C)C(N)=O)C[C@@H]2CCCC[C@@H]21)C(C)C)[C@@H](C)O)C(C)C)C(C)C)C(C)C)[C@@H](C)O)C(C)C) [SEQ ID NO 659],> 1000 nM

# Results, then the binder that gave them:
row,IC50,Binder
1,6.62 nM,WVTHXLAGLLSXSGGVVXKNFVPTDVGXFAF (Ac-WVTH[Cit]LAGLLS[Cit]SGGVV[hArg]KNFVPTDVG[Hyp]FAF-NH2) [SEQ ID NO 667]
2,11.2 nM,WVTHXLAGLLSXSGGVVXKNFVPTDVGXFAF (AC-WVTH[Cit]LAGLLS[Cit]SGGVV[hArg]KNFVPTDVG[Pip]FAF-NH2) [SEQ ID NO 666]
3,6.01 nM,WVTHXLAGLLSXSGGVVXKNFVPTDVGXFAF (AC-WVTH[Cit]LAGLLS[Cit]SGGVV[hArg]KNFVPTDVG[Hyp]FAF-NH2) [SEQ ID NO 668]
4,4.37 nM,Ac-WVTH[Cit]LAGLLS[Cit]SGGVV[hArg]KNFVPTDVG[Aib]FAF-NH2 [SEQ ID NO 670]
5,10.8 nM,WVTHXLAGLLSXSGGVVXKNFVPTDVGXXAF (Ac-WVTH[Cit]LAGLLS[Cit]SGGVV[hArg]KNFVPTDVG[Pip][1-Nal]AF-NH2) [SEQ ID NO 675]
6,79.3 nM,Ac-WVTH[Cit]LAGLLS[Cit]SGGVV[hArg]KNFVPTDVGP[Tpi]AF-NH2 (SMILES CC(=O)N[C@@H](Cc1c[nH]c2ccccc12)C(=O)N[C@H](C(=O)N[C@H](C(=O)N[C@@H](Cc1c[nH]cn1)C(=O)N[C@@H](CCCNC(N)=O)C(=O)N[C@@H](CC(C)C)C(=O)N[C@@H](C)C(=O)NCC(=O)N[C@@H](CC(C)C)C(=O)N[C@@H](CC(C)C)C(=O)N[C@@H](CO)C(=O)N[C@@H](CCCNC(N)=O)C(=O)N[C@@H](CO)C(=O)NCC(=O)NCC(=O)N[C@H](C(=O)N[C@H](C(=O)N[C@@H](CCCCNC(=N)N)C(=O)N[C@@H](CCCCN)C(=O)N[C@@H](CC(N)=O)C(=O)N[C@@H](Cc1ccccc1)C(=O)N[C@H](C(=O)N1CCC[C@H]1C(=O)N[C@H](C(=O)N[C@@H](CC(=O)O)C(=O)N[C@H](C(=O)NCC(=O)N1CCC[C@H]1C(=O)N1Cc2[nH]c3ccccc3c2C[C@H]1C(=O)N[C@@H](C)C(=O)N[C@@H](Cc1ccccc1)C(N)=O)C(C)C)[C@@H](C)O)C(C)C)C(C)C)C(C)C)[C@@H](C)O)C(C)C) [SEQ ID NO 676]
7,3.77 nM,Ac-WVTH[Cit]LAGLLS[Cit]SGGVV[Cit]KNFVPTDVG[Oic]KAF-NH2 (SMILES CC(=O)N[C@@H](Cc1c[nH]c2ccccc12)C(=O)N[C@H](C(=O)N[C@H](C(=O)N[C@@H](Cc1c[nH]cn1)C(=O)N[C@@H](CCCNC(N)=O)C(=O)N[C@@H](CC(C)C)C(=O)N[C@@H](C)C(=O)NCC(=O)N[C@@H](CC(C)C)C(=O)N[C@@H](CC(C)C)C(=O)N[C@@H](CO)C(=O)N[C@@H](CCCNC(N)=O)C(=O)N[C@@H](CO)C(=O)NCC(=O)NCC(=O)N[C@H](C(=O)N[C@H](C(=O)N[C@@H](CCCNC(N)=O)C(=O)N[C@@H](CCCCN)C(=O)N[C@@H](CC(N)=O)C(=O)N[C@@H](Cc1ccccc1)C(=O)N[C@H](C(=O)N1CCC[C@H]1C(=O)N[C@H](C(=O)N[C@@H](CC(=O)O)C(=O)N[C@H](C(=O)NCC(=O)N1[C@H](C(=O)N[C@@H](CCCCN)C(=O)N[C@@H](C)C(=O)N[C@@H](Cc2ccccc2)C(N)=O)C[C@@H]2CCCC[C@@H]21)C(C)C)[C@@H](C)O)C(C)C)C(C)C)C(C)C)[C@@H](C)O)C(C)C) [SEQ ID NO 665]
8,28.9 nM,Ac-WVTH[Cit]LAGLLS[Cit]SGGVV[hArg]KNFVPTDVG[Tpi]FAF-NH2 (SMILES CC(=O)N[C@@H](Cc1c[nH]c2ccccc12)C(=O)N[C@H](C(=O)N[C@H](C(=O)N[C@@H](Cc1c[nH]cn1)C(=O)N[C@@H](CCCNC(N)=O)C(=O)N[C@@H](CC(C)C)C(=O)N[C@@H](C)C(=O)NCC(=O)N[C@@H](CC(C)C)C(=O)N[C@@H](CC(C)C)C(=O)N[C@@H](CO)C(=O)N[C@@H](CCCNC(N)=O)C(=O)N[C@@H](CO)C(=O)NCC(=O)NCC(=O)N[C@H](C(=O)N[C@H](C(=O)N[C@@H](CCCCNC(=N)N)C(=O)N[C@@H](CCCCN)C(=O)N[C@@H](CC(N)=O)C(=O)N[C@@H](Cc1ccccc1)C(=O)N[C@H](C(=O)N1CCC[C@H]1C(=O)N[C@H](C(=O)N[C@@H](CC(=O)O)C(=O)N[C@H](C(=O)NCC(=O)N1Cc2[nH]c3ccccc3c2C[C@H]1C(=O)N[C@@H](Cc1ccccc1)C(=O)N[C@@H](C)C(=O)N[C@@H](Cc1ccccc1)C(N)=O)C(C)C)[C@@H](C)O)C(C)C)C(C)C)C(C)C)[C@@H](C)O)C(C)C) [SEQ ID NO 673]

# Reference: US20080020978A1 (Amgen, published 2008)
